Patent US20140162289A1

Biological target: ADRB2-luc234R233 (β2 adrenergic receptor fused at its C terminus to permuted firefly luciferase with R at the X position of the TEV cleavage site) (firefly) (UniProt P07550)
Test: cell-based or functional assay

Chain of Human β arrestin 2-TEV fusion (tobacco etch virus protease A fused to the C terminus of β arrestin 2) (P32121 1-409, tags or fused parts left off): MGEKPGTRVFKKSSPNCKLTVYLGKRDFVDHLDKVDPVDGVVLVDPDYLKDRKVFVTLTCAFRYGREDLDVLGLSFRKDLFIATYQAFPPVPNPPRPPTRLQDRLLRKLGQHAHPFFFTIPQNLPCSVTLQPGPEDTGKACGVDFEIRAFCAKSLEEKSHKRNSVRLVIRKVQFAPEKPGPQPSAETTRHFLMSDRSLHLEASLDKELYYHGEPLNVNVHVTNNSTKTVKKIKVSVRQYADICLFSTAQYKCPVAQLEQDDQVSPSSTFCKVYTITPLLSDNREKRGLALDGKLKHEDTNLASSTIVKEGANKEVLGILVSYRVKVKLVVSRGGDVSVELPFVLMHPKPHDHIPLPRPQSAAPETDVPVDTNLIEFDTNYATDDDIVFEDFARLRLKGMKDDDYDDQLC

Human β arrestin 2-TEV fusion (tobacco etch virus protease A fused to the C terminus of β arrestin 2) (from UniProt P32121 1-409; P04517 2040-2279)
> 3 fold: relative luminescence (reconstituted permuted luciferase) in co-transfected CHO-K1 cells, with or without 10 µM isoproterenol, 2 hours | relative luminescence in co-transfected CHO-K1 cells, with or without 10 µM isoproterenol, 2 hours | relative luminescence units in cotransfected CHO-K1 cells, with or without 10 µM ADRB2 agonist, 2 hours
